According to patent US20190321401A1 (JUNO THERAPEUTICS, published 2019):

Columns and labels:
Experiment in all cases: activation reporter or marker
[1] = target: T1, HPV 16 E7(11-19), single-substitution variant Y1A (synthetic scanning library) peptide on HLA-A*02:01 (human)
T1 peptide: AMLDLQPET

[2] = target: T2, HPV 16 E7(11-19), single-substitution variant Y1C (synthetic scanning library) peptide on HLA-A*02:01 (human)
T2 peptide: CMLDLQPET

[3] = target: T3, HPV 16 E7(11-19), single-substitution variant Y1L (synthetic scanning library) peptide on HLA-A*02:01 (human)
T3 peptide: LMLDLQPET

[4] = target: T4, HPV 16 E7(11-19), single-substitution variant Y1S (synthetic scanning library) peptide on HLA-A*02:01 (human)
T4 peptide: SMLDLQPET

[5] = target: T5, HPV 16 E7(11-19), single-substitution variant Y1T (synthetic scanning library) peptide on HLA-A*02:01 (human)
T5 peptide: TMLDLQPET

[6] = target: T6, HPV 16 E7(11-19), single-substitution variant M2C (synthetic scanning library) peptide on HLA-A*02:01 (human)
T6 peptide: YCLDLQPET

[7] = target: T7, HPV 16 E7(11-19), single-substitution variant L3C (synthetic scanning library) peptide on HLA-A*02:01 (human)
T7 peptide: YMCDLQPET

[8] = target: T8, HPV 16 E7(11-19), single-substitution variant L3M (synthetic scanning library) peptide on HLA-A*02:01 (human)
T8 peptide: YMMDLQPET

[9] = target: T9, HPV 16 E7(11-19), single-substitution variant L3V (synthetic scanning library) peptide on HLA-A*02:01 (human)
T9 peptide: YMVDLQPET

[10] = target: T10, HPV 16 E7(11-19), single-substitution variant L5C (synthetic scanning library) peptide on HLA-A*02:01 (human)
T10 peptide: YMLDCQPET

[11] = target: T11, HPV 16 E7(11-19), single-substitution variant L5Y (synthetic scanning library) peptide on HLA-A*02:01 (human)
T11 peptide: YMLDYQPET

[12] = target: T12, HPV 16 E7(11-19), single-substitution variant P7C (synthetic scanning library) peptide on HLA-A*02:01 (human)
T12 peptide: YMLDLQCET

[13] = target: T13, HPV 16 E7(11-19), single-substitution variant E8R (synthetic scanning library) peptide on HLA-A*02:01 (human)
T13 peptide: YMLDLQPRT

[14] = target: T14, HPV 16 E7(11-19), single-substitution variant E8Q (synthetic scanning library) peptide on HLA-A*02:01 (human)
T14 peptide: YMLDLQPQT

[15] = target: T15, HPV 16 E7(11-19), single-substitution variant E8G (synthetic scanning library) peptide on HLA-A*02:01 (human)
T15 peptide: YMLDLQPGT

[16] = target: T16, HPV 16 E7(11-19), single-substitution variant E8H (synthetic scanning library) peptide on HLA-A*02:01 (human)
T16 peptide: YMLDLQPHT

[17] = target: T17, HPV 16 E7(11-19), single-substitution variant E8I (synthetic scanning library) peptide on HLA-A*02:01 (human)
T17 peptide: YMLDLQPIT

[18] = target: T18, HPV 16 E7(11-19), single-substitution variant E8M (synthetic scanning library) peptide on HLA-A*02:01 (human)
T18 peptide: YMLDLQPMT

[19] = target: T19, HPV 16 E7(11-19), single-substitution variant E8P (synthetic scanning library) peptide on HLA-A*02:01 (human)
T19 peptide: YMLDLQPPT

[20] = target: T20, HPV 16 E7(11-19), single-substitution variant E8S (synthetic scanning library) peptide on HLA-A*02:01 (human)
T20 peptide: YMLDLQPST

[21] = target: T21, HPV 16 E7(11-19), single-substitution variant E8W (synthetic scanning library) peptide on HLA-A*02:01 (human)
T21 peptide: YMLDLQPWT

[22] = target: T22, HPV 16 E7(11-19), single-substitution variant T9A (synthetic scanning library) peptide on HLA-A*02:01 (human)
T22 peptide: YMLDLQPEA

[23] = target: T23, HPV 16 E7(11-19), single-substitution variant T9C (synthetic scanning library) peptide on HLA-A*02:01 (human)
T23 peptide: YMLDLQPEC

[24] = target: T24, HPV 16 E7(11-19), single-substitution variant T9M (synthetic scanning library) peptide on HLA-A*02:01 (human)
T24 peptide: YMLDLQPEM

[25] = target: T25, HPV 16 E7(11-19), single-substitution variant T9S (synthetic scanning library) peptide on HLA-A*02:01 (human)
T25 peptide: YMLDLQPES

Measured: binding result

B1: TCR 57 (TCR, V domains shown)
Valpha: TQLLEQSPQFLSIQEGENLTVYCNSSSVFSSLQWYRQEPGEGPVLLVTVVTGGEVKKLKRLTFQFGDARKDSSLHITAAQPGDTGLYLCAGARNFNKFYFGSGTKLNVKP
Vbeta: GAVVSQHPSWVICKSGTSVKIECRSLDFQATTMFWYRQFPKQSLMLMATSNEGSKATYEQGVEKDKFLINHASLTLSTLTVTSAHPEDSSFYICSARSWRGGLEQFFGPGTRLTVL
recognises: all assays above
